Measurements: publication PMC4720395, “Improvements in Glucose Sensitivity and Stability of Trichoderma reesei β-Glucosidase Using Site-Directed Mutagenesis” (PLoS ONE, 2016)
Residue numbers refer to the chain shown, from its start. Names and notes keep the numbering of the source.

Legend:
Cel1A (Bgl II) [1] = biological target: T1, Cel1A (Bgl II) (Trichoderma reesei, UniProt O93785, L2V); assay: Dixon plot, pNPG hydrolysis, p-nitrophenol absorbance […] nm; assay type: biochemical; settings: pNPG substrate (low concentrations), 100 mM acetate pH 5.5, 30°C; competitive; read-out: WT
T1 construct: gene bgl2; forward primer with NcoI site encodes N-terminus MVPKDFQW; GH1
T1 sequence (O93785 1-466 L2V): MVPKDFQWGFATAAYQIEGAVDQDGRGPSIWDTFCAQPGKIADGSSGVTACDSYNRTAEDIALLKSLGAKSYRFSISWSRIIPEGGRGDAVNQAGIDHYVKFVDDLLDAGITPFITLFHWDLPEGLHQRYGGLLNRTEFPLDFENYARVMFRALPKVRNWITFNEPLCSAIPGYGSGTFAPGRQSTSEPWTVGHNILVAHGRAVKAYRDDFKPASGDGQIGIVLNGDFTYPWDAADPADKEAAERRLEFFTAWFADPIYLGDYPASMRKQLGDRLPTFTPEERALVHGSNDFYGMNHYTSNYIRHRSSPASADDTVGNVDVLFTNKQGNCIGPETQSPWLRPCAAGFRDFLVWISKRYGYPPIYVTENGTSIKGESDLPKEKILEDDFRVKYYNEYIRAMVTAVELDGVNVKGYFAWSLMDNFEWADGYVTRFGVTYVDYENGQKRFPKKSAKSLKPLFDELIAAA

Cel1A (Bgl II) [2] = biological target: T2, Cel1A (Bgl II) (Trichoderma reesei, UniProt O93785, L2V/L167W/P172L); assay: as above; assay type: biochemical; settings: pNPG substrate (low concentrations), 100 mM acetate pH 5.5, 30°C; competitive; glucose also stimulates at higher pNPG; read-out: WT
T2 construct: gene bgl2; forward primer with NcoI site encodes N-terminus MVPKDFQW; GH1
T2 sequence (O93785 1-466 L2V/L167W/P172L): T1 sequence (O93785 1-466 L2V) with L167W, P172L

purified protein = substrate: O=[N+]([O-])c1ccc(O[C@@H]2O[C@H](CO)[C@@H](O)[C@H](O)[C@H]2O)cc1; assay: purified protein; assay type: biochemical, Trichoderma reesei; settings: 100 mM acetate pH 5.5, 30°C, no glucose
[3] = substrate inhibition above 0.25 mM pNPG

`OC[C@H]1OC(O)[C@H](O)[C@@H](O)[C@@H]1O` (stereo partly drawn) [glucose] gave a Ki (Cel1A (Bgl II) [1]) of 50 mM and a Ki (Cel1A (Bgl II) [2]) of 50 mM.

B1: Cel1A (Bgl II) (Trichoderma reesei; L167W/L2V/P172L) (protein)
chain: T1 sequence (O93785 1-466 L2V) with L167W, P172L
notes: forward primer with NcoI site encodes N-terminus MVPKDFQW; GH1
Molecule B1 has a Km (purified protein; [3]) of 230 ± 10 µM and a Vmax (purified protein; [3]) of 13.3 µmol/min/mg.

B2: Cel1A (Bgl II) (Trichoderma reesei; L2V) (protein)
chain: T1 sequence (O93785 1-466 L2V)
notes: as for B1
B2 was tested, and the Km (purified protein) was 2480 ± 750 µM and the Vmax (purified protein) was 7.7 µmol/min/mg.
